According to US20190112393 (published 2019):
Like-named read-outs stand apart in the source and are kept apart here.

Assays:
Test in all cases: SPR
human FcγRIIb [1] = molecular target: T1, human FcγRIIb (human, UniProt P31994)
T1 chain: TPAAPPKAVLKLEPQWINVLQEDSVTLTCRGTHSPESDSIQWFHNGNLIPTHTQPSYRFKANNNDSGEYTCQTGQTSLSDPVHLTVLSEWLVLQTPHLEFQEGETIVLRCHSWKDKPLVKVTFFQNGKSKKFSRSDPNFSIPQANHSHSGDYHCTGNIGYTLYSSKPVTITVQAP

human FcγRIIb [2] = molecular target: T1, human FcγRIIb
human FcγRIa = molecular target: T2, human FcγRIa (human, UniProt P12314)
T2 chain: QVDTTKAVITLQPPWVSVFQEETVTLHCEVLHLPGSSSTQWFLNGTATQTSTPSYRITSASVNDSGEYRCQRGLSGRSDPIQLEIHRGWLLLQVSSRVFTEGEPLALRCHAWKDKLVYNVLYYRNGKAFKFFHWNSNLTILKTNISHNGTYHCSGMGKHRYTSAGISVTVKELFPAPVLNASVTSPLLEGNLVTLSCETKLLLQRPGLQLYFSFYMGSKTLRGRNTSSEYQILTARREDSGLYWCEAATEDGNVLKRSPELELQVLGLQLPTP

human FcγRIIb [3] = molecular target: T1, human FcγRIIb
mouse FcγRI = molecular target: T3, mouse FcγRI (mouse, UniProt P26151)
T3 chain: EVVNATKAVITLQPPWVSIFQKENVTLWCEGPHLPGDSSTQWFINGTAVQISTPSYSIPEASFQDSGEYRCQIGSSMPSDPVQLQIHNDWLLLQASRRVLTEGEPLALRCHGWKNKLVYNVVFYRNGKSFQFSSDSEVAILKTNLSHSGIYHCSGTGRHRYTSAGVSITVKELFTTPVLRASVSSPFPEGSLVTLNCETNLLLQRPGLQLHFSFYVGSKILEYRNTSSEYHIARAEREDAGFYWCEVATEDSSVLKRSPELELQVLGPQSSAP

mouse FcγRIV = molecular target: T4, mouse FcγRIV (mouse, UniProt A0A0B4J1G0)
T4 chain: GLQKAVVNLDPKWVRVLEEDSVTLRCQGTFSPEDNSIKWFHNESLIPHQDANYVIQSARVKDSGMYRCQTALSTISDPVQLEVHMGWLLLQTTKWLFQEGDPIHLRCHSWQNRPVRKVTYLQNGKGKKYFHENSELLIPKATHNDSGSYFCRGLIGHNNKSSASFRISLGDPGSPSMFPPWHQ

Row | Binder | Kd (human FcγRIa) | binding result (mouse FcγRI) | binding result (mouse FcγRIV) | also measured
1 | BP464 (antibody) chain 1: QVQLQESGPGLVKPSETLSLTCAVSGHSISHDHAWSWVRQPPGEGLEWIGFISYSGITNYNPSLQGRVTISRDNSKNTLYLQMNSLRAEDTAVYYCARSLARTTAMDYWGEGTLVTVSSASTKGPSVFPLAPSSKSTSGGTAALGCLVKDYFPEPVTVSWNSGALTSGVHTFPAVLQSSGLYSLSSVVTVPSSSLGTQTYICNVNHKPSNTKVDKKVEPKSCDKTHTCPPCPAPDLLGDDSVFLFPPKPKDTLMISRTPEVTCVVVDVAEEDGEVKFNWYVDGVEVHNAKTKPREEQYNSTYRVVSVLTVLHQDWLNGKEYKCKVSNKALPRPIEKTISKAKGQPREPQVYTLPPSRDELTKNQVSLTCLVKGFYPSDIAVEWESNGQPENNYKTTPYVLDSDGSFFLYSKLTVDKSRWQQGNVFSCSVMHEALHNHYTQESLSLSP chain 2: not shown | – | – | – | Kd (human FcγRIIb [1]): 4 nM
2 | 2B261 (antibody) chain 1: QVQLQESGPGLVKPSETLSLTCAVSGHSISHDHAWSWVRQPPGEGLEWIGFISYSGITNYNPSLQGRVTISRDNSKNTLYLQMNSLRAEDTAVYYCARSLARTTAMDYWGEGTLVTVSSASTKGPSVFPLAPSSKSTSGGTAALGCLVKDYFPEPVTVSWNSGALTSGVHTFPAVLQSSGLYSLSSVVTVPSSSLGTQTYICNVNHKPSNTKVDKKVEPKSCDKTHTCPPCPAPDLLGGDSVFLFPPKPKDTLMISRTPEVTCVVVDVSHEDPEVKFNWYVDGVEVHNAKTKPREEQDNSTYRVVSVLTVLHQDWLNGKEYKCKVSNKALPAPIEKTISKAKGQPREPQVYTLPPSRDELTKNQVSLTCLVKGFYPSDIAVEWESNGQPENNYKTTPPVLDSDGSFFLYSKLTVDKSRWQQGNVFSCSVMHEALHNHYTQESLSLSP chain 2: not shown | 9 nM | – | – | Kd (human FcγRIIb [2]): 1000 nM
3 | BP350 (antibody) chain 1: QVQLQESGPGLVKPSETLSLTCAVSGHSISHDHAWSWVRQPPGEGLEWIGFISYSGITNYNPSLQGRVTISRDNSKNTLYLQMNSLRAEDTAVYYCARSLARTTAMDYWGEGTLVTVSSASTKGPSVFPLAPSSKSTSGGTAALGCLVKDYFPEPVTVSWNSGALTSGVHTFPAVLQSSGLYSLSSVVTVPSSSLGTQTYICNVNHKPSNTKVDKKVEPKSCDKTHTCPPCPAPDLLGDDSVFLFPPKPKDTLMISRTPEVTCVVVDVEEEDGEVKFNWYVDGVEVHNAKTKPREEQYNSTYRVVSVLTVLHQDWLNGKEYKCKVSNKALPAPIEKTISKAKGQPREPQVYTLPPSRDELTKNQVSLTCLVKGFYPSDIAVEWESNGQPENNYKTTPPVLDSDGSFFLYSKLTVDKSRWQQGNVFSCSVMHEALHNHYTQESLSLSP chain 2: not shown | – | – | – | Kd (human FcγRIIb [3]): 100 nM
4 | VH3/L(WT)-mIgG1-mF44 (antibody) chain 1: QVQLQESGPGLVKPSETLSLTCAVSGHSISHDHAWSWVRQPPGEGLEWIGFISYSGITNYNPSLQGRVTISRDNSKNTLYLQMNSLRAEDTAVYYCARSLARTTAMDYWGEGTLVTVSSAKTTPPSVYPLAPGSAAQTNSMVTLGCLVKGYFPEPVTVTWNSGSLSSGVHTFPAVLQSDLYTLSSSVTVPSSTWPSETVTCNVAHPASSTKVDKKIVPRDCGCKPCICTVPEVSSVFIFPPKPKDVLTITLTPKVTCVVVDISKDDPEVQFSWFVDDVEVHTAQTQPREEQFNSTFRSVSELPIMHQDWLNGKEFKCRVNSADFPAPIEKTISKTKGRPKAPQVYTIPPPKEQMAKDKVSLTCMITDFFPEDITVEWQWNGQPAENYKNTQPIMDTDGSYFVYSKLNVQKSNWEAGNTFTCSVLHEGLHNHHTEKSLSHSPGK chain 2: not shown | – | no binding | no binding | –
5 | BP084 (antibody) chain 1: QVQLQESGPGLVKPSETLSLTCAVSGHSISHDHAWSWVRQPPGEGLEWIGFISYSGITNYNPSLQGRVTISRDNSKNTLYLQMNSLRAEDTAVYYCARSLARTTAMDYWGEGTLVTVSSASTKGPSVFPLAPSSKSTSGGTAALGCLVKDYFPEPVTVSWNSGALTSGVHTFPAVLQSSGLYSLSSVVTVPSSSLGTQTYICNVNHKPSNTKVDKKVEPKSCDKTHTCPPCPAPELLGGDSVFLFPPKPKDTLMISRTPEVTCVVVDVSHEDPEVKFNWYVDGVEVHNAKTKPREEQYNSTYRVVSVLTVLHQDWLNGKEYKCKMSNKALPKPIEKTISKAKGQPREPQVYTLPPSRDELTKNQVSLTCLVKGFYPSDIAVEWESNGQPENNYKTTPPVLDSDGSFFLYSKLTVDKSRWQQGNVFSCSVMHEALHNHYTQESLSLSP chain 2: not shown | 7 nM | – | – | Kd (human FcγRIIb [2]): 500 nM
6 | VH3/L(WT)-mIgG1 (antibody) chain 1: QVQLQESGPGLVKPSETLSLTCAVSGHSISHDHAWSWVRQPPGEGLEWIGFISYSGITNYNPSLQGRVTISRDNSKNTLYLQMNSLRAEDTAVYYCARSLARTTAMDYWGEGTLVTVSSAKTTPPSVYPLAPGSAAQTNSMVTLGCLVKGYFPEPVTVTWNSGSLSSGVHTFPAVLQSDLYTLSSSVTVPSSTWPSETVTCNVAHPASSTKVDKKIVPRDCGCKPCICTVPEVSSVFIFPPKPKDVLTITLTPKVTCVVVDISKDDPEVQFSWFVDDVEVHTAQTQPREEQFNSTFRSVSELPIMHQDWLNGKEFKCRVNSAAFPAPIEKTISKTKGRPKAPQVYTIPPPKEQMAKDKVSLTCMITDFFPEDITVEWQWNGQPAENYKNTQPIMDTDGSYFVYSKLNVQKSNWEAGNTFTCSVLHEGLHNHHTEKSLSHSPGK chain 2: not shown | – | no binding | no binding | –
7 | VH3/L(WT)-mIgG1-mF46 (antibody) chain 1: QVQLQESGPGLVKPSETLSLTCAVSGHSISHDHAWSWVRQPPGEGLEWIGFISYSGITNYNPSLQGRVTISRDNSKNTLYLQMNSLRAEDTAVYYCARSLARTTAMDYWGEGTLVTVSSAKTTPPSVYPLAPGSAAQTNSMVTLGCLVKGYFPEPVTVTWNSGSLSSGVHTFPAVLQSDLYTLSSSVTVPSSTWPSETVTCNVAHPASSTKVDKKIVPRDCGCKPCICTVPEVSDVFIFPPKPKDVLTITLTPKVTCVVVDISKDDPEVQFSWFVDDVEVHTAQTQPREEQFNSTFRSVSELPIMHQDWLNGKEFKCRVNSADFPAPIEKTISKTKGRPKAPQVYTIPPPKEQMAKDKVSLTCMITDFFPEDITVEWQWNGQPAENYKNTQPIMDTDGSYFVYSKLNVQKSNWEAGNTFTCSVLHEGLHNHHTEKSLSHSPGK chain 2: not shown | – | no binding | no binding | –
8 | BP455 (antibody) chain 1: QVQLQESGPGLVKPSETLSLTCAVSGHSISHDHAWSWVRQPPGEGLEWIGFISYSGITNYNPSLQGRVTISRDNSKNTLYLQMNSLRAEDTAVYYCARSLARTTAMDYWGEGTLVTVSSASTKGPSVFPLAPSSKSTSGGTAALGCLVKDYFPEPVTVSWNSGALTSGVHTFPAVLQSSGLYSLSSVVTVPSSSLGTQTYICNVNHKPSNTKVDKKVEPKSCDKTHTCPPCPAPDLLGDDSVFLFPPKPKDTLMISRTPEVTCVVVDVAEEDGEVKFNWYVDGVEVHNAKTKPREEQYNSTYRVVSVLTVLHQDWLNGKEYKCKVSNKALPRPIEKTISKAKGQPREPQVYTLPPSRDELTKNQVSLTCLVKGFYPSDIAVEWESNGQPENNYKTTPLVLDSDGSFFLYSKLTVDKSRWQQGNVFSCSVMHEALHNHYTQESLSLSP chain 2: not shown | – | – | – | Kd (human FcγRIIb [1]): 4 nM
9 | BP367 (antibody) chain 1: QVQLQESGPGLVKPSETLSLTCAVSGHSISHDHAWSWVRQPPGEGLEWIGFISYSGITNYNPSLQGRVTISRDNSKNTLYLQMNSLRAEDTAVYYCARSLARTTAMDYWGEGTLVTVSSASTKGPSVFPLAPSSKSTSGGTAALGCLVKDYFPEPVTVSWNSGALTSGVHTFPAVLQSSGLYSLSSVVTVPSSSLGTQTYICNVNHKPSNTKVDKKVEPKSCDKTHTCPPCPAPDLLGDDSVFLFPPKPKDTLMISRTPEVTCVVVDVSEDDGEVKFNWYVDGVEVHNAKTKPREEQYNSTYRVVSVLTVLHQDWLNGKEYKCKVSNKALPAPIEKTISKAKGQPREPQVYTLPPSRDELTKNQVSLTCLVKGFYPSDIAVEWESNGQPENNYKTTPPVLDSDGSFFLYSKLTVDKSRWQQGNVFSCSVMHEALHNHYTQESLSLSP chain 2: not shown | – | – | – | Kd (human FcγRIIb [3]): 100 nM
10 | BP182 (antibody) chain 1: QVQLQESGPGLVKPSETLSLTCAVSGHSISHDHAWSWVRQPPGEGLEWIGFISYSGITNYNPSLQGRVTISRDNSKNTLYLQMNSLRAEDTAVYYCARSLARTTAMDYWGEGTLVTVSSASTKGPSVFPLAPSSKSTSGGTAALGCLVKDYFPEPVTVSWNSGALTSGVHTFPAVLQSSGLYSLSSVVTVPSSSLGTQTYICNVNHKPSNTKVDKKVEPKSCDKTHTCPPCPAPDLLGGDSVFLFPPKPKDTLMISRTPEVTCVVVDVSHEDGEVKFNWYVDGVEVHNAKTKPREEQDNSTYRVVSVLTVLHQDWLNGKEYKCKVSNKALPKPIEKTISKAKGQPREPQVYTLPPSRDELTKNQVSLTCLVKGFYPSDIAVEWESNGQPENNYKTTPPVLDSDGSFFLYSKLTVDKSRWQQGNVFSCSVMHEALHNHYTQESLSLSP chain 2: not shown | 10 nM | – | – | –
